Publication PMC9418005

Biological target: Omicron BA.1.1 spike trimer (includes the R346K mutation) (SARS-CoV-2) (UniProt P0DTC2)
Assay: Luminex spike-ACE2 surrogate neutralization assay

Substance: P5C3 LS monoclonal antibody
- percent inhibition of ACE2 binding at 20 µg ml^−1: 100%
